A short description of this data set: protein stability index of a GFP-peptide fusion (GPS, HEK-293T) (PSI 1-6); higher = more stable. The settings on record: c terminus: a fixed tail appended.

± gives the standard deviation.
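Also: 24-mer peptide tiles fused after GFP, lentivirally expressed, FACS-sorted into six equal bins by GFP/DsRed ratio, decoded by Illumina sequencing, PSI is the read-weighted mean bin number.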

On to AAAAAHSTPVRREVTDKEQEFAAR [EPB41L3], for which the protein stability index runs as follows: (treatment: DMSO) 5.28 ± 0.47; (treatment: MLN4924 1 uM, 8 h) 5.18 ± 0.56.

Regarding AAIFSLFFVPLSYLLMVTVILLPY [TMEM175], the protein stability index turned out to be 2.91 ± 0.11 (treatment: DMSO) and 3.01 ± 0.53 (treatment: MLN4924 1 uM, 8 h).

As to AALEAAGEGLNVIQQTTRYFSTPQ [NANOGP8], the protein stability index reads like this: (treatment: DMSO) 3.3 ± 0.16; (treatment: MLN4924 1 uM, 8 h) 3.31 ± 0.25.

Regarding AARKKYNLLQDSSTSDSDLTCDSS [C18orf25], the protein stability index was 4.96 ± 0.21 (treatment: DMSO) and 4.89 ± 0.23 (treatment: MLN4924 1 uM, 8 h).

AAVFKETFKSLSHIDPDVLYPSLN [ALG2]: the protein stability index by setting is: (treatment: DMSO) 2.72 ± 0.17; (treatment: MLN4924 1 uM, 8 h) 2.71 ± 0.22.

For the sequence ACGVAMELYVFGGVRSREDAQGSE [GAN], the protein stability index (treatment: DMSO) came to 2.22 ± 0.25 and the protein stability index (treatment: MLN4924 1 uM, 8 h) turned out to be 2.35 ± 0.096.

With ACSEDSLFLRCSLRHKDEEEEDDD [DRICH1], the protein stability index is, setting by setting: (treatment: DMSO) 5.32 ± 0.27; (treatment: MLN4924 1 uM, 8 h) 5.24 ± 0.16.

For ACVVQQKDARQWFAELSVDMEKIL [CCNC], the protein stability index (treatment: DMSO) was found to be 2.51 ± 0.26 and the protein stability index (treatment: MLN4924 1 uM, 8 h) turned out to be 2.42 ± 0.17.

On to ADDLVLTLSNPQMSLEGTEKASWL [ELF3], for which the protein stability index runs as follows: (treatment: DMSO) 3.62 ± 0.29; (treatment: MLN4924 1 uM, 8 h) 3.85 ± 0.26.

Regarding ADHGEPIGRGTKVILHLKEDQTEY [HSP90AB1], the protein stability index reads like this: (treatment: DMSO) 4.76 ± 0.2; (treatment: MLN4924 1 uM, 8 h) 4.89 ± 0.29.

For the sequence ADPDEMRMQALLIRERILGPSHPD [FEM1C], the protein stability index came out at 3.94 ± 0.33 (treatment: DMSO) and 3.94 ± 0.13 (treatment: MLN4924 1 uM, 8 h).

On to ADPVLDLPLPPPPPEPLSQVSMWD [APBB1IP], for which the protein stability index was determined as 3.46 ± 0.68 (treatment: DMSO) and 3.94 ± 0.62 (treatment: MLN4924 1 uM, 8 h).

As for ADSTSFDVQLGDIILTATDGLFDN [PPTC7], the protein stability index runs as follows: (treatment: DMSO) 3.58 ± 0.22; (treatment: MLN4924 1 uM, 8 h) 3.68 ± 0.26.

AEAKRDAGIREAKAKQEKVSAQYL [FLOT1]: the protein stability index is 4.88 ± 0.32 (treatment: DMSO) and 5.094 ± 0.024 (treatment: MLN4924 1 uM, 8 h).

Regarding AEKKKPKTQIVCKHFLEAIENNKY [ZC3H15], the protein stability index (treatment: DMSO) stood at 3.51 ± 0.41 and the protein stability index (treatment: MLN4924 1 uM, 8 h) worked out at 3.63 ± 0.25.

Regarding AFAPDFKELDENVEYEERESEFDI [RBBP5], the protein stability index is, setting by setting: (treatment: DMSO) 5.38 ± 0.15; (treatment: MLN4924 1 uM, 8 h) 5.16 ± 0.41.

As for AFASFTSGVVRIWDLRDQSVVRDL [TLE6], the protein stability index reads like this: (treatment: DMSO) 2.36 ± 0.47; (treatment: MLN4924 1 uM, 8 h) 2.21 ± 0.35.

AFQHTPTSITLTASRVSKVNDKRR [KMT2E]: the protein stability index is, setting by setting: (treatment: DMSO) 3.74 ± 0.27; (treatment: MLN4924 1 uM, 8 h) 4.11 ± 0.47.

AFQITGVWDASRAPRGTPDPGLGE [PLEKHN1]: the protein stability index reads like this: (treatment: DMSO) 3.85 ± 0.31; (treatment: MLN4924 1 uM, 8 h) 3.78 ± 0.21.

Regarding AFRWGAHLVQHQRIHSGEKPYECN [ZNF232], the protein stability index (treatment: DMSO) is 2.79 ± 0.25 and the protein stability index (treatment: MLN4924 1 uM, 8 h) stood at 2.87 ± 0.19.

As to AFSHKSMRDRHVNMHLNLRPFDCP [ZBTB22], the protein stability index runs as follows: (treatment: DMSO) 2.4 ± 0.15; (treatment: MLN4924 1 uM, 8 h) 2.47 ± 0.19.

Sequence AFTEYVHAYFRGHSPSCLARVTGE [FCHO1] displayed a protein stability index (treatment: DMSO) of 2.1 ± 0.28 and a protein stability index (treatment: MLN4924 1 uM, 8 h) of 2.22 ± 0.25.

On to AGGGGGGAGAGAPGGGRLLLSTSL [INTS3], for which the protein stability index reads like this: (treatment: DMSO) 3.19 ± 0.12; (treatment: MLN4924 1 uM, 8 h) 2.94 ± 0.24.

As to AGLENTVAETECRYALQLQQIQGL [KRT13], the protein stability index stood at 3.12 ± 0.24 (treatment: DMSO) and 2.91 ± 0.19 (treatment: MLN4924 1 uM, 8 h).

For the sequence AGTPGYLSPEVLRKEAYGKPVDIW [CAMK2B], the protein stability index runs as follows: (treatment: DMSO) 3.29 ± 0.15; (treatment: MLN4924 1 uM, 8 h) 3.31 ± 0.14.

Take AHFYGVKLEGKVPMHKLFLEMLEA [ESRRA]: the protein stability index (treatment: DMSO) was 2.46 ± 0.51 and the protein stability index (treatment: MLN4924 1 uM, 8 h) came to 2.12 ± 0.034.

Take AHSAAVTASGDCYTFGSNQHGQLG [NEK8]: the protein stability index reads like this: (treatment: DMSO) 3.81 ± 0.2; (treatment: MLN4924 1 uM, 8 h) 3.94 ± 0.35.

In turn, AILVKVQLDALPFFVITMIKIVLI [SLC29A1] had a protein stability index (treatment: DMSO) of 3.23 ± 0.22 and a protein stability index (treatment: MLN4924 1 uM, 8 h) of 3.23 ± 0.37.

As to AIWDDTDSMYGECRTYIIHYYLMD [EFHC1], the protein stability index by setting is: (treatment: DMSO) 2.83 ± 0.52; (treatment: MLN4924 1 uM, 8 h) 2.67 ± 0.64.

For the sequence AKVDSSGVIDLFGDAFGSSASEPQ [SNAP91], the protein stability index runs as follows: (treatment: DMSO) 4.47 ± 0.23; (treatment: MLN4924 1 uM, 8 h) 4.57 ± 0.19.

On to AKVESMDQEIKFFRCLFEAEITQI [KRT71], for which the protein stability index is, setting by setting: (treatment: DMSO) 2.01 ± 0.51; (treatment: MLN4924 1 uM, 8 h) 2.19 ± 0.15.

Turning to AKVYVGVKQEIAEMRIPALNAYMK [NCF4], the protein stability index reads like this: (treatment: DMSO) 2.13 ± 0.2; (treatment: MLN4924 1 uM, 8 h) 2.32 ± 0.29.

Sequence ALALANSDSVHIEDAEAVEQLREA [ESRRA] had a protein stability index (treatment: DMSO) of 5.18 ± 0.3 and a protein stability index (treatment: MLN4924 1 uM, 8 h) of 5.26 ± 0.28.

As to ALHPERAMDNHSDSEEELAAFCPQ [RETREG3], the protein stability index was determined as 5.42 ± 0.12 (treatment: DMSO) and 5.37 ± 0.24 (treatment: MLN4924 1 uM, 8 h).

Regarding ALPPLRTRSKSDPVLHPSEERAAP [FAM189A2], the protein stability index was 5.64 ± 0.39 (treatment: DMSO) and 5.58 ± 0.2 (treatment: MLN4924 1 uM, 8 h).

Consider ALRPTAFSGCLNCSKVSELTERLK [EMID1], for which the protein stability index reads like this: (treatment: DMSO) 2.74 ± 0.37; (treatment: MLN4924 1 uM, 8 h) 2.97 ± 0.47.

Values taken from the supplement of paper PMC10567573.
